In patent publication US20230189844:

Columns and labels:
[1] = molecular target: T1, Soy Kunitz Inhibitor (Trypsin Inhibitor from soybean), P01070
T1 chain: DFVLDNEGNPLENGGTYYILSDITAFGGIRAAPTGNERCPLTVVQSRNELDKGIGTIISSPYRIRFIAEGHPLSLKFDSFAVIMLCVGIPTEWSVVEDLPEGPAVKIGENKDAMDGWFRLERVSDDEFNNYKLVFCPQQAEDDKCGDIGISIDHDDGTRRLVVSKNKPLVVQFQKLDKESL

[2] = molecular target: T2, Soy Bowman-Birk Inhibitor, P01055
T2 chain: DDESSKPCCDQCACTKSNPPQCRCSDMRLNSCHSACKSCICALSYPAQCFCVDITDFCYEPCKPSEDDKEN

[3] = molecular target: Soybean agglutinin (SBA), P05046
Soybean agglutinin (SBA), P05046, sequence (P05046 33-285): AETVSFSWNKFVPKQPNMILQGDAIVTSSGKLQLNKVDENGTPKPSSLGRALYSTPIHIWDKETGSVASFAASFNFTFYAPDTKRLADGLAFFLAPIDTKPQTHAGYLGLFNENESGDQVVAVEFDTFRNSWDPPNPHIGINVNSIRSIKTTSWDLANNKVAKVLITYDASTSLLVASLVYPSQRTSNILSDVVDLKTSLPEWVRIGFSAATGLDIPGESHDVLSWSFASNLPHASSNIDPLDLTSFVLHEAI

B1: Protease derived from Nocardiopsis sp. NRRL 18262 (an acid-stable protease) (protein)
chain: ADIIGGLAYTMGGRCSVGFAATNAAGQPGFVTAGHCGRVGTQVTIGNGRGVFEQSVFPGNDAAFVRGTSNFTLTNLVSRYNTGGYATVAGHNQAPIGSSVCRSGSTTGWHCGTIQARGQSVSYPEGTVTNMTRTTVCAEPGDSGGSYISGTQAQGVTSGGSGNCRTGGTTFYQEVTPMVNSWGVRLRT
- % of anti-nutritional factor degraded (SDS-PAGE band disappearance, 2 hours, 37° C., pH 6.5) [1]: 100%
- % of anti-nutritional factor degraded (SDS-PAGE band disappearance, 2 hours, 37° C., pH 6.5) [2]: 25%
- % of anti-nutritional factor degraded (SDS-PAGE band disappearance, 2 hours, 37° C., pH 6.5) [3]: 75%
